From article PMC3653949, “Dissection of Agonistic and Blocking Effects of CD200 Receptor Antibodies” (PLoS ONE, 2013)

Target: T1, CD200R(1)-rCD4d3+4 (extracellular domains of mouse CD200R allele 1 fused to rat CD4 domains 3 and 4) (mouse, UniProt Q9ES57 26-238, biotin at the biotinylation site)
T1 construct: mouse CD200R, allele CD200R(1) of C57BL/6 mice, the two extracellular domains; also called mCD200R; CD200R(1) rCD4d3+d4; source: 293T cells, transfected (pEF-BOS), tissue culture supernatant concentrated and biotinylated
T1 sequence (looked up): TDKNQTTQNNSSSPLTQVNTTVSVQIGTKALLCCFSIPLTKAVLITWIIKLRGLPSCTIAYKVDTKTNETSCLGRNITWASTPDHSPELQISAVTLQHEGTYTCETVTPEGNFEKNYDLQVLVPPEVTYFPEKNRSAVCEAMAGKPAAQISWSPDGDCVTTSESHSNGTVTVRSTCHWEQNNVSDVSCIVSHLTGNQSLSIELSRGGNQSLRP
Test: SPR; biotinylated CD200R(1)-rCD4d3+4, CD200R(2)-rCD4d3+4 and rCD4d3+4 from tissue culture supernatants immobilized on streptavidin coupled CM5 chip (726, 704, 681 RU); purified, gel filtered CD200-rCD4d3+4 (0.75 µM) passed over; BIAcore 3000, 25°C
Details: both partners purified

B1: mouse CD200-rCD4d3+4 (extracellular domains of mouse CD200 fused to rat CD4 domains 3 and 4) (ligand, UniProt O54901 31-232, looked up)
chain: QVEVVTQDERKALHTTASLRCSLKTSQEPLIVTWQKKKAVSPENMVTYSKTHGVVIQPAYKDRINVTELGLWNSSITFWNTTLEDEGCYMCLFNTFGSQKVSGTACLTLYVQPIVHLHYNYFEDHLNITCSATARPAPAISWKGTGTGIENSTESHFHSNGTTSVTSILRVKDPKTQVGKEVICQVLYLGNVIDYKQSLDKG
modifications: biotin at the biotinylation site (form put on streptavidin coated fluorescent beads)
notes: mouse CD200, extracellular domains; also called soluble CD200; soluble purified CD200; source: 293T cells, transfected (pEF-BOS), tissue culture supernatant concentrated and biotinylated (on beads); purified and gel filtered (SPR)
B1: binds.
